# Measured values published in patent US8129592B2, “Plant isoflavonoid hydroxylases and methods of use thereof” (The Samuel Roberts Noble Foundation, Inc., priority 2003, dated 2012).
# B1: I3′H (MtCYP81E9) (Medicago truncatula) (protein)
# chain: MTLFYYSLLSLSFIITIKILLKITSRRLKNLPPGPPTIPIIGNLHHLKHPLHRTFTTLSQTYGDIFSLWFGSRLVVVVSSPSLAHECFTKNDIILANRPRFLTGKYIFYNYTTLGSASYGDHWRNLRRITTIDVLSNNRLNSFLGVRRDETNRLIQKLLKDVVSEGFGFTKVELRPRLTEMTFNAMMRMISGKRYYGDDGDVSDVEEAKQFREIISEMMSLLGANNKGDFLPLLRVVDLDNLEKRCKRIAKRSNAFLEGLIEEHRRGNIHSDGGTMIDHLLKLSESQPEYYSDHLIKGLIQGMLLAGTDTSAVTIEWVMSELLNHPEVLKKAKEELDTQIGKNKLVDEQDLSKLPYLQNIISETLRLHPPAPLLLPHYSSEDCTIGEFNVPKDTIILTNVWGIHRDPKHWNDALSFKPERFEKEEEVNKVMAFGLGRRACPGLSLAQRTVGFTVGLLIQCFEWERESEEKLDMMEGKGITMPMKIPLRAMCKALPIANDVTK
# notes: made in house; host or cells: Saccharomyces cerevisiae WAT11, vector YeDP60; microsomal fraction
# Experiments:
# [1] = substrate: COc1ccc(-c2coc3cc(O)ccc3c2=O)cc1; experiment: Hydroxylase assay with yeast microsomes expressing recombinant MtCYP81E9 (I3′H); assay type: biochemical, Medicago truncatula; details: other: 2 mM NADPH and pH 8.0, 25.0 °C
# Experimental: (§1) After induction with 20% galactose for ˜18 h, yeast cells was harvested, weighed, and immediately processed for microsomal fractionation.
# (§2) After incubation at ˜80 rpm for 30 to 40 min, spheroplasts were centrifuged down for 5 min, washed twice with Zymolyase buffer B, and then twice with phosphate buffer A (0.1 M potassium phosphate pH 8.0, 1 M sorbitol, 14 mM 2-mercaptoethanol). The spheroplasts were re-suspended in a minimum vol of phosphate buffer B (0.1 M potassium phosphate pH 8.0, 0.4 M sucrose, 14 mM β-mercaptoethanol, 1 mM PMSF and 1× protein inhibitor cocktail (Roche Diagnostics GmbH, Mannheim, German), and 1 vol of glass beads (diameter at 0.45/0.50 mm) was added. Samples were vigorously vortexed at 4° C., with the quality of cell disruption checked under the microscope. The supernatant was then removed and the beads washed four times with phosphate buffer B. Supernatants were pooled and centrifuged at 12,000 g for 10 min; the resulting supernatant was then ultracentrifuged at 140,000 g for 90 min. The supernatant was discarded and the pellet washed briefly with phosphate buffer C (0.1 M potassium phosphate, pH 8.0, 0.4 M sucrose, 0.5 mM glutathione), and re-suspended in the same buffer plus 5% glycerol at about 12 mg total protein/ml. Protein was quantified using a Bio-Rad protein assay kit (Bio-Rad, Hercules, Calif.).
# (§3) Hydroxylase assays were performed in phosphate buffer C in a total volume of 150 μl containing 2 mM NADPH, 40 μM isoflavone substrate and 40˜70 pmol P450 protein. Reactions were incubated at 25° C. for 1.5 h (over which period the reactions were linear) with gentle shaking and stopped by extracting twice with 500 μl of ethyl acetate. The extracts were combined, evaporated under N2, re-suspended in 60 μl of methanol, and analyzed by HPLC or LC-MS. All assays to determine enzyme specificity were carried out in duplicate. For kinetic studies, the isoflavone concentration was varied at a fixed concentration of NADPH (2 mM), and kinetic constants calculated from initial rate data using Lineweaver-Burke double reciprocal plots. All kinetic analyses were carried out in triplicate.
# (§4) Reaction products from enzyme assays (30 μl) were analyzed by HPLC.
# (§5) Product identification was firstly based on comparisons of chromatographic behavior and UV spectra with authentic standards. Identifications were then confirmed by HPLC-MS, using a HP 1100 liquid chromatograph coupled to a Bruker Esquire Ion-Trap mass spectrometer equipped with an electrospray source. HPLC separation was achieved using a J. T. Baker Bakerbond reverse-phase column (C18, 5 μm, 4.6 mm×250 mm, J. T. Baker, Philipsberg, N.J.). […] Mass spectra were recorded over a range of 50-2200 m/z.
# [2] = substrate: COc1ccc(-c2coc3cc(O)cc(O)c3c2=O)cc1; experiment: as above; assay type: biochemical, Medicago truncatula; details: other: 2 mM NADPH and pH 8.0, 25.0 °C
# Experimental: as §1, §2, §3, §4, §5
protein,measurement,setting,value
B1,Km,[1],49.7 µM
same,kcat,[1],0.028 s⁻¹
same,Km,[2],112.6 µM
same,kcat,[2],0.1 s⁻¹
